Source: patent US20140357845A1

Experiments:
Details in all cases: remark: other sources report otherwise
[1] = molecular target: T1, s-H1-mini2-cluster1 + 5 + 6-GCN4 (A/Brisbane/59/2007) (influenza A virus H1N1)
[2] = molecular target: T1, s-H1-mini2-cluster1 + 5 + 6-GCN4 …; test: BLI steady state titration, 1:1 model
[3] = molecular target: mini2 cluster11 + 5 (A/Brisbane/59/2007) (influenza A virus H1N1), A8C8J4; test: FACS
[4] = molecular target: mini2-cluster1 + 5 (A/Brisbane/59/2007) (influenza A virus H1N1), A8C8J4; test: FACS
[5] = molecular target: mini2-cluster11 + 5 + 6 (A/Brisbane/59/2007) (influenza A virus H1N1), A8C8J4; test: FACS
[6] = molecular target: miniHA cluster1 (A/Brisbane/59/2007) (influenza A virus H1N1), A8C8J4; test: FACS
[7] = molecular target: H1-mini2-cluster1 + 5 + 6-trim (influenza A virus H1N1), A8C8J4; test: FACS

B1: CR6261 (antibody, V domains shown)
VH: EVQLVESGAEVKKPGSSVKVSCKASGGPFRSYAISWVRQAPGQGPEWMGGIIPIFGTTKYAPKFQGRVTITADDFAGTVYMELSSLRSEDTAMYYCAKHMGYQVRETMDVWGKGTTVTVSS
VL: QSVLTQPPSVSAAPGQKVTISCSGSSSNIGNDYVSWYQQLPGTAPKLLIYDNNKRPSGIPDRFSGSKSGTSATLGITGLQTGDEANYYCATWDRRPTAYVVFGGGTKLTVLG
Question: What does the source list for B1?
Answer: BLI maximum response [1]: 0.25 nm; Kd [2]: 190 nM; % positive cells [3]: 80%; MFI relative to full-length HA [3]: 50%; % positive cells [4]: 80%; % positive cells [5]: 80%; % positive cells [6]: 60%; MFI relative to full-length HA [6]: 10%; % positive cells [7]: 80%; fold reduction of MFI against SEQ ID NO: 46 [7]: 3 to 4 fold
